Substitutions are numbered along the chain they refer to. Names may count otherwise. “And” between values parts separate entries of the source, which are not always exact repeats. Equal values may be shown once.
Experiments:
Mesyl-dFPR-ACC = molecular target: T1, Mesyl-dFPR-ACC
T1 sequence (peptide, N-terminal mesyl; D-Phe at position 1 (dF); C-terminal ACC fluorophore): FPR

[1] = molecular target: Factor X (Homo sapiens (Human)) (UniProt P00742)
[2] = molecular target: Factor X (FX) (Homo sapiens (Human)) (UniProt P00742)
Factor X (FX) (Homo sapiens (Human)), sequence (P00742 41-488 limits assumed): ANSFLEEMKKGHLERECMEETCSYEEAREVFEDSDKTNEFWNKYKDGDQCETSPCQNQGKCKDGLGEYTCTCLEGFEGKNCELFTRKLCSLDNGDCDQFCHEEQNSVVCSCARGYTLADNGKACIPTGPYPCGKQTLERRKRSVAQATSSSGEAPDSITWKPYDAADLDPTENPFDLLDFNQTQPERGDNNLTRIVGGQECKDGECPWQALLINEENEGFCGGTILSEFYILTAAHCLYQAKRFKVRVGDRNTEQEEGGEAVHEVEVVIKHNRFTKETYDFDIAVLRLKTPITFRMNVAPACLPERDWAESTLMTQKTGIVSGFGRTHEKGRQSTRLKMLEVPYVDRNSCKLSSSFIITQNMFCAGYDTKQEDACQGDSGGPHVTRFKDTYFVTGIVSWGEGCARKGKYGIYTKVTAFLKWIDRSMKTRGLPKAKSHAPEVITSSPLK

Molecule: S52A/S60A/S222A-FVIIa (enzyme)
- Activity (µmol/sec/µmol), specific activity for mesyl-dFPR-ACC (µmol/sec/µmol) (Mesyl-dFPR-ACC): 1.22
- kcat/KM (M^-1s^-1), TF-dependent assay [1]: 3.91e+07 M⁻¹ s⁻¹
- kcat/KM, TF-independent assay [1]: 10.2 M⁻¹ s⁻¹ and 19.6 M⁻¹ s⁻¹

Molecule: Gla swap FIX/A122N/G124S/A175S/S222A/Q286R-FVIIa (enzyme)
- Activity (µmol/sec/µmol), specific activity for mesyl-dFPR-ACC (µmol/sec/µmol) (Mesyl-dFPR-ACC): 0.89
- kcat/KM, TF-dependent assay [1]: 4.13e+07 M⁻¹ s⁻¹

Molecule: T128N/P129A/A175S/Q366V-FVIIa (enzyme)
- Activity (µmol/sec/µmol), specific activity for mesyl-dFPR-ACC (µmol/sec/µmol) (Mesyl-dFPR-ACC): 3.4
- kcat/KM (M^-1s^-1), TF-dependent assay [1]: 3.38e+07 M⁻¹ s⁻¹
- kcat/KM, TF-independent assay [1]: 3.4 M⁻¹ s⁻¹

Molecule: T128N/P129A/A175S/S222A/H257A/Q286R/M298Q-FVIIa (enzyme)
- Activity (µmol/sec/µmol), specific activity for mesyl-dFPR-ACC (µmol/sec/µmol) (Mesyl-dFPR-ACC): 21.8
- kcat/KM, TF-dependent assay [1]: 6.89e+07 M⁻¹ s⁻¹

Molecule: {Gla swap FIX/E40L}/Q286R/M298Q-FVIIa (enzyme)
- Activity (µmol/sec/µmol), specific activity for mesyl-dFPR-ACC (µmol/sec/µmol) (Mesyl-dFPR-ACC): 1.16
- kcat/KM (M^-1s^-1), TF-dependent assay [1]: 2.08e+08 M⁻¹ s⁻¹
- kcat/KM, TF-independent assay [1]: 814 M⁻¹ s⁻¹

Molecule: T128N/P129A/Q286R/M298Q/H373F-FVIIa (enzyme)
- Activity (µmol/sec/µmol), specific activity for mesyl-dFPR-ACC (µmol/sec/µmol) (Mesyl-dFPR-ACC): 2.83
- kcat/KM (M^-1s^-1), TF-dependent assay [1]: 1.33e+08 M⁻¹ s⁻¹
- kcat/KM, TF-independent assay [1]: 30.7 M⁻¹ s⁻¹

Molecule: Gla swap FIX-FVIIa (enzyme)
- Activity (µmol/sec/µmol), specific activity for mesyl-dFPR-ACC (µmol/sec/µmol) (Mesyl-dFPR-ACC): 1.63
- kcat/KM (M^-1s^-1), TF-dependent assay [1]: 5.38e+07 M⁻¹ s⁻¹
- kcat/KM, TF-independent assay [1]: 41.3 M⁻¹ s⁻¹

Molecule: S52A/S60A/V158D/E296V/M298Q-FVIIa (enzyme)
- Activity (µmol/sec/µmol), specific activity for mesyl-dFPR-ACC (µmol/sec/µmol) (Mesyl-dFPR-ACC): 2.56
- kcat/KM (M^-1s^-1), TF-dependent assay [1]: 2e+08 M⁻¹ s⁻¹
- kcat/KM, TF-independent assay [1]: 1760 M⁻¹ s⁻¹

Molecule: Gla swap FIX/Q286R/M298Q-FVIIa (enzyme)
- Activity (µmol/sec/µmol), specific activity for mesyl-dFPR-ACC (µmol/sec/µmol) (Mesyl-dFPR-ACC): 1.53
- kcat/KM (M^-1s^-1), TF-dependent assay [1]: 2.55e+08 M⁻¹ s⁻¹ and 2.3e+08 M⁻¹ s⁻¹
- kcat/KM, TF-independent assay [1]: 673 M⁻¹ s⁻¹ and 678 M⁻¹ s⁻¹

Molecule: WT FVIIa (enzyme)
- Activity (µmol/sec/µmol), specific activity for mesyl-dFPR-ACC (µmol/sec/µmol) (Mesyl-dFPR-ACC): 2.4

Molecule: Gla swap FIX/S222A/Q286R/M298Q/H373F-FVIIa (enzyme)
- Activity (µmol/sec/µmol), specific activity for mesyl-dFPR-ACC (µmol/sec/µmol) (Mesyl-dFPR-ACC): 1.92
- kcat/KM (M^-1s^-1), TF-dependent assay [1]: 2.84e+08 M⁻¹ s⁻¹
- kcat/KM, TF-independent assay [1]: 192 M⁻¹ s⁻¹

Molecule: T128N/P129A/Q286R/M298Q-FVIIa (enzyme)
- Activity (µmol/sec/µmol), specific activity for mesyl-dFPR-ACC (µmol/sec/µmol) (Mesyl-dFPR-ACC): 1.8
- kcat/KM (M^-1s^-1), TF-dependent assay [1]: 1.86e+08 M⁻¹ s⁻¹ and 1.5e+08 M⁻¹ s⁻¹
- kcat/KM, TF-independent assay [1]: 81.6 M⁻¹ s⁻¹ and 212 M⁻¹ s⁻¹

Molecule: A122N/G124S/A175S/Q286R/M298Q-FVIIa (enzyme)
- Activity (µmol/sec/µmol), specific activity for mesyl-dFPR-ACC (µmol/sec/µmol) (Mesyl-dFPR-ACC): 3.03
- kcat/KM, TF-dependent assay [1]: 7.43e+07 M⁻¹ s⁻¹

Molecule: T128N/P129A/S222A/H257A/Q286R/M298Q-FVIIa (enzyme)
- Activity (µmol/sec/µmol), specific activity for mesyl-dFPR-ACC (µmol/sec/µmol) (Mesyl-dFPR-ACC): 1.66
- kcat/KM (M^-1s^-1), TF-dependent assay [1]: 1.55e+08 M⁻¹ s⁻¹ and 1.73e+08 M⁻¹ s⁻¹

Molecule: Gla swapFIX/Q366V-FVIIa (enzyme)
- Activity (µmol/sec/µmol), specific activity for mesyl-dFPR-ACC (µmol/sec/µmol) (Mesyl-dFPR-ACC): 2.82
- kcat/KM (M^-1s^-1), TF-dependent assay [1]: 9.11e+07 M⁻¹ s⁻¹
- kcat/KM, TF-independent assay [1]: 90 M⁻¹ s⁻¹

Molecule: T128N/P129A/A175S/S222A-FVIIa (enzyme)
- Activity (µmol/sec/µmol), specific activity for mesyl-dFPR-ACC (µmol/sec/µmol) (Mesyl-dFPR-ACC): 3.19
- kcat/KM (M^-1s^-1), TF-dependent assay [1]: 1.72e+07 M⁻¹ s⁻¹
- kcat/KM, TF-independent assay [1]: 1.9 M⁻¹ s⁻¹

Molecule: S52A/S60A/S222A/H257A/Q286R/M298Q-FVIIa (enzyme)
- Activity (µmol/sec/µmol), specific activity for mesyl-dFPR-ACC (µmol/sec/µmol) (Mesyl-dFPR-ACC): 0.98
- kcat/KM (M^-1s^-1), TF-dependent assay [1]: 2.49e+08 M⁻¹ s⁻¹
- kcat/KM, TF-independent assay [1]: 116 M⁻¹ s⁻¹

Molecule: S52A/S60A/Q286R/M298Q-FVIIa (enzyme)
- Activity (µmol/sec/µmol), specific activity for mesyl-dFPR-ACC (µmol/sec/µmol) (Mesyl-dFPR-ACC): 1.08
- kcat/KM (M^-1s^-1), TF-dependent assay [1]: 1.25e+08 M⁻¹ s⁻¹
- kcat/KM, TF-independent assay [1]: 217 M⁻¹ s⁻¹

Molecule: WT (NovoSeven®) FVIIa (enzyme)
- Activity (µmol/sec/µmol), specific activity for mesyl-dFPR-ACC (µmol/sec/µmol) (Mesyl-dFPR-ACC): 2.31

B1: FVIIa variant S222E (enzyme)
chain: ANAFLEELRPGSLERECKEEQCSFEEAREIFKDAERTKLFWISYSDGDQCASSPCQNGGSCKDQLQSYICFCLPAFEGRNCETHKDDQLICVNENGGCEQYCSDHTGTKRSCRCHEGYSLLADGVSCTPTVEYPCGKIPILEKRNASKPQGRIVGGKVCPKGECPWQVLLLVNGAQLCGGTLINTIWVVSAAHCFDKIKNWRNLIAVLGEHDLSEHDGDEQERRVAQVIIPSTYVPGTTNHDIALLRLHQPVVLTDHVVPLCLPERTFSERTLAFVRFSLVSGWGQLLDRGATALELMVLNVPRLMTQDCLQQSRKVGDSPNITEYMFCAGYSDGSKDSCKGDSGGPHATHYRGTWYLTGIVSWGQGCATVGHFGVYTRVSQYIEWLQKLMRSEPRPGVLLRAPFP
- kcat/KM, TF-Dependent Indirect Assay [2]: 5.48e+07 M⁻¹ s⁻¹

B2: FVIIa variant S222A/H373A (enzyme)
chain: B1 chain with E222A, H373A
- kcat/KM, TF-Dependent Indirect Assay [2]: 3.64e+07 M⁻¹ s⁻¹

B3: FVIIa variant Q286R/H373A (enzyme)
chain: B1 chain with E222S, Q286R, H373A
- kcat/KM, TF-Dependent Indirect Assay [2]: 5.89e+07 M⁻¹ s⁻¹

B4: FVIIa variant P321E (enzyme)
chain: B1 chain with E222S, P321E
- kcat/KM, TF-Dependent Indirect Assay [2]: 5.59e+07 M⁻¹ s⁻¹

B5: FVIIa variant H257A/M298Q (enzyme)
chain: B1 chain with E222S, H257A, M298Q
- kcat/KM, TF-Dependent Indirect Assay [2]: 1.28e+08 M⁻¹ s⁻¹

B6: FVIIa variant Q366V/H373L (enzyme)
chain: B1 chain with E222S, Q366V, H373L
- kcat/KM, TF-Dependent Indirect Assay [2]: 3.07e+07 M⁻¹ s⁻¹

B7: FVIIa variant H257S/Q366V (enzyme)
chain: B1 chain with E222S, H257S, Q366V
- kcat/KM, TF-Dependent Indirect Assay [2]: 6.71e+07 M⁻¹ s⁻¹

B8: FVIIa variant H216A/H257A (enzyme)
chain: B1 chain with H216A, E222S, H257A
- kcat/KM, TF-Dependent Indirect Assay [2]: 6.62e+07 M⁻¹ s⁻¹

B9: FVIIa variant Q286R/M298Q/H373F (enzyme)
chain: B1 chain with E222S, Q286R, M298Q, H373F
- kcat/KM, TF-Dependent Indirect Assay [2]: 1.51e+08 M⁻¹ s⁻¹

B10: FVIIa variant H216A/S222A (enzyme)
chain: B1 chain with H216A, E222A
- kcat/KM, TF-Dependent Indirect Assay [2]: 5.46e+07 M⁻¹ s⁻¹

B11: FVIIa variant Q286R/M298Q/Q366D (enzyme)
chain: B1 chain with E222S, Q286R, M298Q, Q366D
- kcat/KM, TF-Dependent Indirect Assay [2]: 1.91e+07 M⁻¹ s⁻¹

B12: FVIIa variant Q286R/M298Q/K341D (enzyme)
chain: B1 chain with E222S, Q286R, M298Q, K341D
- kcat/KM, TF-Dependent Indirect Assay [2]: 1.18e+07 M⁻¹ s⁻¹

B13: FVIIa variant P321Y (enzyme)
chain: B1 chain with E222S, P321Y
- kcat/KM, TF-Dependent Indirect Assay [2]: 4.48e+07 M⁻¹ s⁻¹

B14: FVIIa variant S222A/H257A/Q286R/Q366V (enzyme)
chain: B1 chain with E222A, H257A, Q286R, Q366V
- kcat/KM, TF-Dependent Indirect Assay [2]: 1.86e+08 M⁻¹ s⁻¹

B15: FVIIa variant Q366V/H373V (enzyme)
chain: B1 chain with E222S, Q366V, H373V
- kcat/KM, TF-Dependent Indirect Assay [2]: 1.84e+07 M⁻¹ s⁻¹

B16: FVIIa variant S222A/M298Q (enzyme)
chain: B1 chain with E222A, M298Q
- kcat/KM, TF-Dependent Indirect Assay [2]: 7.13e+07 M⁻¹ s⁻¹

B17: FVIIa variant A51N (enzyme)
chain: B1 chain with A51N, E222S
- kcat/KM, TF-Dependent Indirect Assay [2]: 1.02e+08 M⁻¹ s⁻¹

B18: FVIIa variant P321K (enzyme)
chain: B1 chain with E222S, P321K
- kcat/KM, TF-Dependent Indirect Assay [2]: 3.43e+07 M⁻¹ s⁻¹

B19: FVIIa variant T239N (enzyme)
chain: B1 chain with E222S, T239N
- kcat/KM, TF-Dependent Indirect Assay [2]: 1.64e+07 M⁻¹ s⁻¹

B20: FVIIa variant P321S (enzyme)
chain: B1 chain with E222S, P321S
- kcat/KM, TF-Dependent Indirect Assay [2]: 5.53e+07 M⁻¹ s⁻¹

B21: FVIIa variant S119N/L121S (enzyme)
chain: B1 chain with S119N, L121S, E222S
- kcat/KM, TF-Dependent Indirect Assay [2]: 5.75e+07 M⁻¹ s⁻¹

B22: FVIIa variant M298Q/H373F (enzyme)
chain: B1 chain with E222S, M298Q, H373F
- kcat/KM, TF-Dependent Indirect Assay [2]: 8.49e+07 M⁻¹ s⁻¹

B23: FVIIa variant Q286R/Q366D (enzyme)
chain: B1 chain with E222S, Q286R, Q366D
- kcat/KM, TF-Dependent Indirect Assay [2]: 1.53e+07 M⁻¹ s⁻¹

B24: FVIIa variant Q286R/H373F (enzyme)
chain: B1 chain with E222S, Q286R, H373F
- kcat/KM, TF-Dependent Indirect Assay [2]: 9.08e+07 M⁻¹ s⁻¹

B25: FVIIa variant Q286R/Q366V (enzyme)
chain: B1 chain with E222S, Q286R, Q366V
- kcat/KM, TF-Dependent Indirect Assay [2]: 7.92e+07 M⁻¹ s⁻¹

B26: FVIIa variant H257S/Q286R/Q366V (enzyme)
chain: B1 chain with E222S, H257S, Q286R, Q366V
- kcat/KM, TF-Dependent Indirect Assay [2]: 1.58e+08 M⁻¹ s⁻¹

B27: FVIIa variant Q286R/Q366N (enzyme)
chain: B1 chain with E222S, Q286R, Q366N
- kcat/KM, TF-Dependent Indirect Assay [2]: 5.42e+07 M⁻¹ s⁻¹

B28: FVIIa variant Q286R/K341D (enzyme)
chain: B1 chain with E222S, Q286R, K341D
- kcat/KM, TF-Dependent Indirect Assay [2]: 1.11e+07 M⁻¹ s⁻¹

B29: FVIIa variant Q286R/M298Q/Q366N (enzyme)
chain: B1 chain with E222S, Q286R, M298Q, Q366N
- kcat/KM, TF-Dependent Indirect Assay [2]: 1.04e+08 M⁻¹ s⁻¹

B30: FVIIa variant H257S/Q286R (enzyme)
chain: B1 chain with E222S, H257S, Q286R
- kcat/KM, TF-Dependent Indirect Assay [2]: 3.93e+07 M⁻¹ s⁻¹

Reference: patent US20090291890A1 (published 2009)
